The results in this text go back to US20060165681A1 (GlaxoSmithKline, published 2006).

For assay [1], the target named is T1, rat MAG-Fc fusion protein (R&D Systems; 538-MG) (rat; human, UniProt P07722 20-516, limits assumed).
T1 construct: Bought reagent coated on ELISA plates; not shown: human Fc
T1 sequence (looked up): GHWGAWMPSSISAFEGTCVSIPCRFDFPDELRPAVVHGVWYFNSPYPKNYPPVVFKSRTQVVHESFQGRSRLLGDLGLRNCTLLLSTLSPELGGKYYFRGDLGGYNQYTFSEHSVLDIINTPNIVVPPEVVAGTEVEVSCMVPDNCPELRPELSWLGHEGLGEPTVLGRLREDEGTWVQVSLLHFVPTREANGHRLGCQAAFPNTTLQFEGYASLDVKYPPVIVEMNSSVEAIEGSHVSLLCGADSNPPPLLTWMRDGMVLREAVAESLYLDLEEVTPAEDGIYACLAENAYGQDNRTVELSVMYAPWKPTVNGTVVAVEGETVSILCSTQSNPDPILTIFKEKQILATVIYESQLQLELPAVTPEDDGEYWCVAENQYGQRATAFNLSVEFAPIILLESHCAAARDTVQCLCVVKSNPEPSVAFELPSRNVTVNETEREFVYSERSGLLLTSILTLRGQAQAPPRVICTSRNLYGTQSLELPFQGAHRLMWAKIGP
The experiment in a line: ELISA on coated rat MAG-Fc, purified antibody. A general note: ELISA stands for enzyme-linked immunosorbent assay.

Assay [2] deals with T1, rat MAG-Fc fusion protein (R&D Systems; …). The experiment in a line: ELISA on coated rat MAG-Fc; purified antibody serially diluted from 5000 ng/ml. The method, then:
96-well Nunc Maxisorp plates were coated overnight at 4° C. with rat MAG-Fc fusion protein (2.5 μg/ml; R&D Systems; Cat.No. 538-MG) in PBS. Plates were washed twice with PBS containing Tween20 (0.1% v/v; PBST) and blocked with PBS containing BSA (1% w/v) for 1 h at room temperature (RT). Purified humanised antibody was adjusted to a starting concentration of 5 μg/ml in blocking buffer and then serial diluted. Antibody samples were incubated 1 h at RT and plates then washed 3× with PBST. Secondary antibody (Goat anti-human light chain specific-peroxidase conjugate; Sigma A-7164) was added diluted 1/5000 in blocking buffer and incubated for 1 h at RT. Wells were washed three times as above and binding detected by adding substrate (OPD tablets dissolved according to instructions; Sigma P-9187). Colour development was monitored and the reaction stopped using 3M H₂SO₄ Colour development was read at 490 nm.

Numbering of substitutions follows the chain as printed.

B1: humanised anti-MAG antibody BVh1/CVl1 (antibody, V domains shown)
VH: QVQLVQSGSELKKPGASVKVSCKASGYTFTNYGMNWVRQAPGQGLEWMGWINTYTGEPTYADDFTGRFVFSLDTSVSTAYLQISSLKAEDTAVYYCARNPINYYGINYEGYVMDYWGQGTLVTVSS
VL: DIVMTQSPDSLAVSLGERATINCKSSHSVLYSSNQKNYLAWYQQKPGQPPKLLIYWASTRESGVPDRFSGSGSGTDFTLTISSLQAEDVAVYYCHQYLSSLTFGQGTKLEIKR
notes: The purified material has a mutated human IgG1 constant region (Kabat residues 248 and 250 changed to alanine) and a human kappa light chain; The antibody was also tested as culture supernatant on human MAG, and the constant region is not restated there; also called BVh1/CVl1 mutated IgG1
In the case of B1, in assay [1], the binding result is given as “binds”.

B2: humanised anti-MAG antibody BVh3/CVl3 (antibody, human IgG1, V domains shown)
VH: B1 VH with V93T, Y95F
VL: DIVMTQSPDSLAVSLGERATINCKSSHSVLYSSNQKNYLAWYQQKPGQPPKLLIYWASTRESGVPDRFSGSGSGTDFTLTISSLHTEDVAVYYCHQYLSSLTFGQGTKLEIKR
notes: The antibody was also tested as culture supernatant on human MAG
For B2, the binding result in assay [2] was “binds”.
